Data from patent publication US20030235900A1.

Biological target: Strep-Tactin Macroprep resin (Cat. No. 2-1505-010; IBA GmbH)
Assay: batch binding to Strep-Tactin Macroprep resin, 1 hour in cold room; binding followed by MTSP10 activity left in the supernatant

percent of activity retained by the resin: 50 to 70%
B1: MTSP10-ST2 C122S (protease domain of human MTSP10, C122S mutant, with C-terminal Strep-tag II, expressed in Pichia pastoris) (enzyme)
chain: RIIGGTDTLEGGWPWQVSLHFVGSAYCGASVISREWLLSAAHCFHGNRLSDPTPWTAHLGMYVQGNAKFVSPVRRIVVHEYYNSQTFDYDIALLQLSIAWPETLKQLIQPISIPPTGQRVRSGEKCWVTGWGRRHEADNKGSLVLQQAEVELIDQTLCVSTYGIITSRMLCAGIMSGKRDACKGDSGGPLSCRRKSDGKWILTGIVSWGHGCGRPNFPGVYTRVSNFVPWIGGWSHPQFEK
